{
  "source": "the DeepSol protein solubility set",
  "data": [
    {"assay": "soluble on expression in E. coli; label from the status in PepcDB or PDB records", "values": [
      {"sequence": "MKLEFNLIIAGVGGQGGLTLSRIIGNAAMIEGYRVRIGETLGMSQRYGSVLSYLRFGEEVYSPLIEEGKADLMLALEPVEALRNARFLSRKSYAIINAYPIHTATTLVGKERYPDLEEIKEAIGKICRVEMRNFQEEADKINPRTLGVLMTGFAWRKGLLPLKKESIIEGIKLTLREKLWDINFRAFERGVELASL", "soluble on expression in E. coli": "soluble"},
      {"sequence": "MKLFHRITISLSEDDMKLIEELRRDSGDSLSKIFREAIQLYYNLLKASKAAGVDFRKYFANATRLAFHINGVEQKQFAVIDREIYRVMLKKLQEKVPPESIESDEEFRSAVAGVVKLFEITRDRWSEYTDEQKLEEILTTMEFAGAGTFARVGDKEYIFNTYAESTAITKLIISSVLASAGLKVEIDHTPGKIFIRL", "soluble on expression in E. coli": "not soluble"},
      {"sequence": "MKLGYSLSKSNAKNFKFYINGSAMGYKNIIINGAKSWNASPYLNTVSKGRDANPHFIISSSTIDRGATVAVCETWAYKGSKLVAKNEITTFKAFRSLSVGDKTETIAHEFGHGLGLGHVKTKNAIMLDVGFTKKIKPQRDDLNGIKAIYKLEHHHHHH", "soluble on expression in E. coli": "not soluble"},
      {"sequence": "MKLIIAVVQDKDSNRLSEALVKANYRATKLASTGGFLKAGNTTFLIGTEDEHVEEVMSIIKDNCKSRDQLVAPISPMGGNADSYVPYPVEVQVGGATVFVLPVEQFEQY", "soluble on expression in E. coli": "not soluble"},
      {"sequence": "MKLIITEDYQEMSRVAAHHLLGYMSKTRRVNLAITAGSTPKGMYEYLTTLVKGKPWYDNCYFYNFDEIPFRGKEGEGVTITNLRNLFFTPAGIKEENIQKLTIDNYREHDQKLAREGGLDLVVLGLGADGHFCGNLPNTTHFHEQTVEFPIQGEMVDIVAHGELGGDFSLVPDSYVTMGPKSIMAAKNLLIIVSGAGKAQALKNVLQGPVTEDVPASVLQLHPSLMVIADKAAAAELAFG", "soluble on expression in E. coli": "soluble"},
      {"sequence": "MKLIWSEESWDDYLYWQETDKRIVKKINEIIKDTRRTPFEGKGKPEPLKHNLSGFWSRRITEEHRLVYAVTDDSLLIAACRYHYLEHHHHHH", "soluble on expression in E. coli": "soluble"},
      {"sequence": "MKLLEVHILQTVAPSNLNRDDTGSPKDALFGGFRRARISSQAQKRAVRVAFRDWPLLSEEERAVRTKRLVEELLRRLAGVEEELARRAIENALNALGFGVKEGRTEYLLFLGNRELDALAQGIRENLEALSGEVKGKKKAEVPPELKKALERVLDGGKAVDLALFGRMLADRPELGVDAAAQVAHALSTHKVDREFDFYTAVDDLNPKEDTGAGMMGDVEFYSATLYRYAVVDLDKLVENLQGDKELALKGVLAFLEAFALTLPSGKQNSFAAHNPPLFVAFRAGEGMPRNLATAFEAPLRPKEEVPLSRLSAEALLKEWAKFDRVYGPLEPEWKGALDLTGAEGDGVPRLENLKALKEKAAEAVKALLGV", "soluble on expression in E. coli": "soluble"},
      {"sequence": "MKLLHTADLHMDRSFEGLTGIPTALAKRLREANQQLLMNIVTVAIREAVDLVIFAGDTFHQSQTSISMQAQLMAALEQLKQAEIPVILTFGNHDYYKKDRYWFSFPDNVFLFEKEMVETLYFETKAGEQVAVSGFSYEHPWIDENKALEFPIKQAESDIHIGIYHGDTSRKAQQNYAPFTWKDLKATGYNYWALGHIHQPQIVSEQPLIVYPGTPQGHTKKEQSLQGVAVVTLSQNQATVQFEKVAEIDWTNEEVSLAQCRDTQSVLSYLETSLLTKWQAHQQQQLMALTLKETQHLDVTVVQAIVNGELLSYLQQQLLQKTQGDFFVYRLILQAEEPTKEPIYLAASPNLLTALEKTYLDPVIFEDTTKELLRYPEFAGIFSMDEQWRLESLRLAHEQINEDFTIQEDPL", "soluble on expression in E. coli": "not soluble"},
      {"sequence": "MKLRSWEFYDRIARAYDSMYETPKWKLYHRLIGSFLEEYLKNPCRVLDLGGGTGKWSLFLQERGFEVVLVDPSKEMLEVAREKGVKNVVEAKAEDLPFPSGAFEAVLALGDVLSYVENKDKAFSEIRRVLVPDGLLIATVDNFYTFLQQMIEKDAWDQITRFLKTQTTSVGTTLFSFNSYAFKPEDLDSLEGFETVDIRGIGVMEYPDERISEREETIFRLEQELSRDRNIIWKADHIFFVLKKKRGA", "soluble on expression in E. coli": "not soluble"},
      {"sequence": "MKLSPATKSFIGKTVDISTFAIQWGFVPFVVYLGFKKGAEPMPNGQILPLSAMSLLWG", "soluble on expression in E. coli": "not soluble"},
      {"sequence": "MKLSPSMLDKLLRLGYSKLFADRYFQLWGERAIRIAEAMEKPLPRCFRVNTLKISVQDLVKRLNKKGFQFKRVPWAKEGFCLTREPFSITSTPEFLTGLIYIQEASSMYPPVALDPKPGEIVADMAAAPGGKTSYLAQLMRNDGVIYAFDVDENRLRETRLNLSRLGVLNVILFHSSSLHIGELNVEFDKILLDAPCTGSGTIHKNPERKWNRTMDDIKFCQGLQMRLLEKGLEVLKPGGILVYSTCSLEPEENEFVIQWALDNFDVELLPLKYGEPALTNPFGIELSEEIKNARRLYPDVHETSGFFIAKIRKL", "soluble on expression in E. coli": "soluble"},
      {"sequence": "MKMARMSKKKKLEMLDVARDEERNRIIRLLTEDDNFTPSLEPLIDNYLDAFIIYKTMFEEWKADGFAPTKTHKNKAGAVNEMKHPLAQQVETWNDKKNKMLEALGMTNKGKSVQKTPKNAENIQTDEPKDELAAHRNKWRKSK", "soluble on expression in E. coli": "not soluble"},
      {"sequence": "MKMELLLIIITQDAYIGQRFTKRSSYLCGIYDKTANTMKEPFQIPTSKDIENLIGTDLYDVWNSLCQRIEKSYEMELLWNRGGKAWTYEYKYRKGGKTLCALYAKEKTLGFMVILGKDERAKFEIQRGQFSNEVQMIYDAATTFHDGKWIMFELKDTKLFNDMERLLLIKRKPNRKAE", "soluble on expression in E. coli": "soluble"},
      {"sequence": "MKMFQKMCASTVIITTLLGIGGTVNSVHADSIEQQSKLGIDQETDKQIIVKFKADLKFPYEDGIEKQIQSQTNDKVLEDLLVEYPDVTFTRLFTSVSPEEIEDLEVKAPNNVSTSLLNYYILQTQNGEQKEELVDRLKKSCLIEDVYMKKQEKITPPEVQPSSVSLSPNNNPRFKQQGYLEAAPYGINAPFAWEVQGGKGSGITFVDMEYGWLLNHEDLVHQNIELMSGINIDQHVGHGTSVLGIVSSEDNEVGNIGIAPKAKAKVISQIRDNGQYNTADAILSAVNQLEAGDVLLLEAQASFDGYGDKYLPVEVQPDIFDAIRAGTDKGVVIIEAGANGWNDLDQFKDRNGKQILNRNSKDFKDSGAIMVGAGSSSFPHGRMWFSNYGSRIDVYGWGENVDTTTAEQSRSAVNLYTSSFSGTSSASPIIAGAATLVQSIAKENLGQPYRPSELRAILSNENTGTKSKDPYADQIGVLPDLKSILVNLGYGQRKPNGGNELQVTENEPNNERIQANKVNFHTPMKGTLHNSDRVDVFTFQMDSPENITISLLNEQNIGMTWVLHHESDLNNYVAYGENEGNVVKGTYHAKPGKYYLYVYKYENKDGSYVLNIK", "soluble on expression in E. coli": "not soluble"},
      {"sequence": "MKMISTIQKKETVMVAPIPAKRGRKPAVATAPATGQVQSLTRGLKLLEWIAESNGSVALTELAQQAGLPNSTTHRLLTTMQQQGFVRQVGELGHWAIGAHAFMVGSSFLQSRNLLAIVHPILRNLMEESGETVNMAVLDQSDHEAIIIDQVQCTHLMRMSAPIGGKLPMHASGAGKAFLAQLSEEQVTKLLHRKGLHAYTHATLVSPVHLKEDLAQTRKRGYSFDDEEHALGLRCLAACIFDEHREPFAAISISGPISRITDDRVTEFGAMVIKAAKEVTLAYGGMR", "soluble on expression in E. coli": "soluble"},
      {"sequence": "MKMLTVENLSKSYGEKPLFDGLSFSIAEGQRAGIIGVNGTGKSTLLKIIAGAEIPDTGDMTHSRGYTISYLSQQPEFDEQLTVLEQVFHGDTPLIRLLRDYEKALLHIEKDPSNEKVQEQLFAVQQRMDAMSVWEANANAKSLLTKLGITDFTATVGNLSGGQKKRIAMAQCFIETPDLLILDEPTNHLDHETVEWLEEYLARYTGAVLLVTHDRYFLDRVTNRIFELDNGKLYSYEGNYSTFLEAKALREEQELAQESKRQNLYRRELAWIRRGAKARSTKQKARIQRFEELKGQEGPAAKQSVDIALSGSRLGKKVLELKDVTKKFGDKTVLNNFNHIVKPGDRIGIIGANGSGKSSLLNMLAGKISPDSGEIEVGQTVKIAYYTQENEEMNLNQRMIEYIKEIAEVIHTTDGKVIGASQMLERFLFPPHSHGTPLGKLSGGERRRLYLLRILMGEPNVLLLDEPTNDLDPQTLTVLEDYLEDFSGVVLTVSHDRYFLDKVVDELFIFTGEGEVREFLGSYTDYLEMEKTRELIEKAEVQKEKKVVEEAPKQQRKRKLSYNEQREWETIEDTIAELEEKLESIGEELANVGSDFTKAQELSEAQQKTEEELEKTMERWSELSDIVEGLK", "soluble on expression in E. coli": "not soluble"},
      {"sequence": "MKNIIACIDGSPTTFATCEASAWVASKINAPLILLHALDKTMRPVVSEFSGQIGLGSQEELLNELAELDEARSKVALKHGKKLLEEATEWVIKKGLTNVEQLQRHGSLLESLIDLENQLRVLVIGKLGEDQSSNKTIGSQLESIIRSIKSHTLVVTSPFSIPTSYLIAFDGSPTSEKLIEKAIKTPLLFGLDCHFVMVDDFAAKSAAFEKAAIKLKNAGLSVHEDILSGSVDEALLKYQKDHQIGMMVMGAYGHSTLRQFFLGSNTTKVLIKSEVPLLLIR", "soluble on expression in E. coli": "not soluble"},
      {"sequence": "MKNNNLSDARKEKGLTQQELAEKLQVRKSTVSNWETGYSSPGISTAIQTAIILDKDVSFLFGNKVQETHTRVRD", "soluble on expression in E. coli": "not soluble"},
      {"sequence": "MKNTQLLTSLRYVLLGALTVTTSVVQAESIAITNATVYTVAKKGVLFQATVMVDEGKITAVYGKDEVPESLSADTIIDAKERILTPGFIATHNLLGLVEVGAVSDTRDSSDKDADITFDASLAFNPKSTLIAYARKGGITSSLVMPYGGEDVITGQSFVVNLSGDFDSVIMPQNAVIVSLGASGKGSRATKLQTLSNELEDAQKALAKAEKVKASSKKEKEEKEAETPSRSELVLNELLSGDKPLIAYADRATDILALLKLKQKFNLNLILAGASDAVLVSDEIAKANVVVMMSAIDNLPSSFDSLHNSLTNVAKLTDAGVKVIISNSGESYNINQLRFDAGVAVANGVAATTALAAVTANVADSFNLNSGRIAVGKNADLVLWSSDPFEISTKVDAMWINGQAMSLKSRQDALRQRYIVETDMPRAYTK", "soluble on expression in E. coli": "not soluble"},
      {"sequence": "MKNYPVKKNDVIEVEIIDLTHEGLGVAKVDHYPLFIENALPGEKLEIKVLKTGKSFGYGKVLTVLKSSEQRVPVKDENFTKVGISPLQHLAYGAQLSFKTQQVENVMQRVAKLQEVPVLPTIGMNDPWHYRNKAQIPVRKIDNQLQTGFFRKNSHDLIPMEHFYIQDPEIDAAIVKIRDIMRKYSVKPYNESDNTGNLRHIVVRRGYHTGEMMVVLITRTPKLFPISKIVPDILEAIPEVVSIVQNVNPKRTNVIFGDETILLHGSEKITDTIFDLKFEISARSFYQVNPQQTEVMYQKVKEYAALTGNEIVVDAYCGIGTIGLTLAQDAKQVYGIEVIEEAVKDAENNAKLNNIENATFTAGLAEELLPKLVENGLQPDVVVVDPPRKGLDGQLVNTLIETQPERIVYVSCNPATLARDIALLTEGGYEAKEIQPVDNFPQTTHIESVTLLTKAVD", "soluble on expression in E. coli": "not soluble"},
      {"sequence": "MKPENKIPVLTRLSDEMTAVVNFQQPGLPPWPADGDIETQRQYYLLERRFWNADAPSMTTRTCAVPTPYGDVTTRLYSPQPTSQATLYYLHGGGFILGNLDTHDRIMRLLARYTGCTVIGIDYSLSPQARYPQAIEETVAVCSYFSQHADEYSLNVEKIGFAGDSAGAMLALASALWLRDKHIRCGNVIAILLWYGLYGLQDSVSRRLFGGAWDGLTREDLDMYEKAYLRNDEDRESPWYCLFNNDLTRDVPPCFIASAEFDPLIDDSRLLHQTLQAHQQPCEYKMYPGTLHAFLHYSRMMTIADDALQDGARFFMARMKTPR", "soluble on expression in E. coli": "not soluble"},
      {"sequence": "MKPGIVKFALNVWPPFWGAGIKILHISEDFRTVKVRLKLRWWNKNANRTQYGGSIFSLTDPIYSLMLMGILREEYYVWDKEASINFIKPGQSDLFAEFEITDGMLDEIYQMTRNGEKCFPEFITHVKDKQGNVVSEVQRKLYVRKLEHHHHHH", "soluble on expression in E. coli": "soluble"},
      {"sequence": "MKPRDINKLIASKIFGYEIKDDNIIKDGRYRLGIPLYSQNIESAWQVVEKLEYDVKVTKTDLKPKYQVHVFVPGGVKMVFAETAPMAICKGALASVDIELQD", "soluble on expression in E. coli": "soluble"}
    ]}
  ]
}
